Target: CPn0677-His (recombinant full-length CPn0677 with C-terminal 10His tag) (Chlamydia pneumoniae GiD)
Assay: SEC; Superdex 200 Increase 10/300 GL, 4 °C, 0.5 ml/min, 5.2 mg CPn0677 (5 mg/ml) in PBS pH 6.0, against standard proteins

## CPn0677-His (recombinant full-length CPn0677 with C-terminal 10His tag) (natural protein)
  stoichiometry N: 2

— paper PMC10182996
